From US20260176336A1 (MESTAG THERAPEUTICS, published 2026)

B1: Clone 4.10 (bispecific antibody, human IgG1, kappa, L234A L235A)
heavy 1: not shown
heavy 2: EVQLVESGGGLVKPGGSLRLSCVASGFTFSLAWMNWVRQAPGKGLEWVGHIKSRADGGSTDYAAPVKGRFTISRDDSKNTLYLHMNSLKTEDTAVYFCSRFYWNYVLDYWGQGTLVTVSSASTKGPSVFPLAPSSKSTSGGTAALGCLVKDYFPEPVTVSWNSGALTSGVHTFPAVLQSSGLYSLSSVVTVPSSSLGTQTYICNVNHKPSNTKVDKKVEPKSCDKTHTCPPCPAPEAAGGPSVFLFPPKPKDTLMISRTPEVTCVVVDVSHEDPEVKFNWYVDGVEVHNAKTKPREEQYNSTYRVVSVLTVLHQDWLNGKEYKCKVSNKALPAPIEKTISKAKGQPREPQVCTLPPSRDELTKNQVSLSCAVKGFYPSDIAVEWESNGQPENNYKTTPPVLDSDGSFFLVSKLTVDKSRWQQGNVFSCSVMHEALHNHYTQKSLSLSPGK
light: DIQMTQSPSSLSASVGDRVTITCRASQSINSYFNWYQQKPGKAPKLLIYAASGLQSGVPSRFSGSGSGTDFTLTISSLQPEDFATYYCQQSYSPPYTFGQGTNLEIKRTVAAPSVFIFPPSDEQLKSGTASVVCLLNNFYPREAKVQWKVDNALQSGNSQESVTEQDSKDSTYSLSSTLTLSKADYEKHKVYACEVTHQGLSSPVTKSFNRGEC
B2: Clone 2.2 (antibody, V domains shown)
VH: EVQLVESGGGLVKPGGSLRLSCAASRFTFSSYSMNWVRQAPGKGLEWVSSISPSSSYIYYADSVKGRFTISRDNAKNSLYLQMNSLRAEDTAVYYCARDHYNWNFDALDIWGQGTMVTVSS
VL: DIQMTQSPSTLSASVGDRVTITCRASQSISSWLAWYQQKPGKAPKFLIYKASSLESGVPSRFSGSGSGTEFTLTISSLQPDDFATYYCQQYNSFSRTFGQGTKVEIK
notes: anti-LTBR mAb (bivalent)
B3: Clone 2.1 (antibody, V domains shown)
VH: EVQLVESGGGLVKPGGSLRLSCAASGFTFSSYCMNWVRQAPGKGLEWVSSISTGNTYIYYSDSVKGRFTISRDNAKNSLYLQMNSLRAEDTAVYYCARARYNWNYDAFDIWGQGTMVTVSS
VL: DIQMTQSPSSLSASIGDRVTITCQASQDISNFLSWYQQKPGKAPNLLIFDASNLETGVPSRFSESGSGTDFSFTITSLQPEDIATYYCQQYYNVPLTFGGGTKVEIK
notes: anti-LTBR mAb (bivalent)
B4: Clone 2.7 (antibody, V domains shown)
VH: EVQLVESGGGLVQPGGSLRLSCAASGFIFDDYDMHWVRQAPGKGLEWVSGINWNSNRVDYADSVKGRFTISRDNARNSLYLQMNSLRPEDTAFYYCVKDKTSSWYVFDSWGQGTPVTVSS
VL: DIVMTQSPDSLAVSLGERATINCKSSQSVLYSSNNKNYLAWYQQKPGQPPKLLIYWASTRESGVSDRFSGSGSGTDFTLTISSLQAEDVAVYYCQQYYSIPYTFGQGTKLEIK
notes: anti-LTBR mAb (bivalent)
B5: Clone 2.4 (antibody, V domains shown)
VH: QVQLVESGGGVVQPGRSLRLSCAASGFTFSSYGIHWVRQAPGKGLEWVAVIWYDGSNKYYADSVKGRFTISRDNSKNTLYLQMNSLRAEDTAVYYCARDGGTGNYYYMDVWGKGTTVTVSS
VL: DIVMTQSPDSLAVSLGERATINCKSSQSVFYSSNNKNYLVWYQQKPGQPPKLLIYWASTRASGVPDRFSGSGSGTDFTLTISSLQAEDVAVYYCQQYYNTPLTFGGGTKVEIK
notes: anti-LTBR mAb (bivalent)
B6: Clone 2.3 (antibody, V domains shown)
VH: EVQLVESGGGLVQPGGSLRLSCAASGFTFSSYAMSWVRQAPGKGLEWVSGISGSGGRTNYADSVKGRFTISRDNSKNTLYLQMNSLRAEDTAVYYCAKSDNWHYLDAFDIWGQGTMVTVSS
VL: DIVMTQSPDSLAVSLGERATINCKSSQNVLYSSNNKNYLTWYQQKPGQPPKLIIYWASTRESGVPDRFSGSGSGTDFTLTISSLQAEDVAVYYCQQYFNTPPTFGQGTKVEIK
notes: anti-LTBR mAb (bivalent)
B7: Clone 2.8 (antibody, V domains shown)
VH: QVQLQESGPGLVKPSGTLSLTCAVSGGSISSSNWWSWVRQPPGKGLEWIGDIYHDGTTYYNPSLKSRVTVSVDKSKNQFSLKLSSVTAADTAVYYCARSPSGTTDYFDYWGQGTLVTVSS
VL: DIQMTQSPSSLSASVGDRVNITCRASQSISSYLNWYQQKPGKAPKLLIYAPSSLQSGVPSRFSGGGSGTDFTLTISSLQPEDFATYFCQQSYSTPPTFGPGTKVDIK
notes: anti-LTBR mAb (bivalent)
B8: Clone 2.6 (antibody, V domains shown)
VH: QVQLVQSGTEMKKPGASVKVSCKASGYTFSSYDISWVRQAPGQGLEWMGWFSAYNGNSNYAQKFQGRVTMTTDTSTNTAYMELRSLRSDDTAVYYCAREGYYGNSGFFDYWGQGTLVTVSS
VL: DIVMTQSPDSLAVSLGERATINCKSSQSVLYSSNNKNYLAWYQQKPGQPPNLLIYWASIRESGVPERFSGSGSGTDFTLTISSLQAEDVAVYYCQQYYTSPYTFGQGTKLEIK
notes: anti-LTBR mAb (bivalent)
B9: Clone 2.5 (antibody, V domains shown)
VH: EVQLVESGGGLVQPGRSLRLSCAASGFTFDDYDIHWVRQAPGKGLEWVSGINWNSITIGYADSVKGRFTISRDNAKNSLYLQMNSLRAEDTALYYCAKDRGSGWRIFDYWGQGTLVTVSS
VL: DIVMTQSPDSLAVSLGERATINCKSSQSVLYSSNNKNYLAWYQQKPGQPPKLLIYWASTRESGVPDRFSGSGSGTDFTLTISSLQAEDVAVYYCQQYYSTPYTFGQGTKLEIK
notes: anti-LTBR mAb (bivalent)
B10: Clone 4.15 (antibody, V domains shown)
VH: QVQLKESGPGLVQPSQTLSLTCTVSGFSLTTYSVHWVRQHSGKSLEWMGRMWTDGDTSYNSAFTSRLSISRDTSKSQVFLKMNSLQTEDTGTYYCARGYWYFDFWGPGTMVTVSS
VL: DVQMTQSPSYLAASPGESVSIRCKASKSISNNLAWYQEKPGKANKLLIHSGSTLQSGTPSRFSGSGSGTDFTLTIRSLEFEDFAVYYCQQYNEYPYTFGAGTKLELK

The binders below were run against T1, human LTBR endogenously expressed on cells (HepG2, A549, A375, HCC1187, RPMI-7951, primary human breast CAFs) (human, UniProt P36941 31-435) (assay: cell-based or functional assay).
T1 sequence (P36941 31-435): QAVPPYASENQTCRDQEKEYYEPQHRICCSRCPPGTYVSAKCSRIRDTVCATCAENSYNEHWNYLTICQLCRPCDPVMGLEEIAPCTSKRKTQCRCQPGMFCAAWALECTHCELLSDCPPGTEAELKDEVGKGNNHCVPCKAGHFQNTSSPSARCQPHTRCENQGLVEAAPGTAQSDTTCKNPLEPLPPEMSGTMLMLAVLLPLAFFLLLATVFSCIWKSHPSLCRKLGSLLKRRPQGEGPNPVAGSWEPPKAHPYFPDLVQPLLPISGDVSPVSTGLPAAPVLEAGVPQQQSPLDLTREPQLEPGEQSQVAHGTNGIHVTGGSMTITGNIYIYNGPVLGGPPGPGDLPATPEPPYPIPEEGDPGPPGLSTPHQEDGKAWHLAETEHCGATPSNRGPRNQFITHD
With B1 the “HepG2 Reporter assay, HepG2:FAP-CHO-K1 Co-culture EC50” value was 0.036 nM.

Biological target: T1, human LTBR endogenously expressed on …
Assay: cell-based or functional assay
Remark: another data set of the same source
With B1 the “CCL19 upregulation, HCC1187:CAF Co-culture EC50” value was 0.41 nM.

The binders below were run against Human LTBR (Acro), recombinant protein (human, UniProt P36941 31-227, limits assumed) (assay: SPR (Carterra LSA), antibody captured by anti-human Fc, LTBR as analyte).
Chain of Human LTBR (Acro), recombinant protein (P36941 31-227 limits assumed): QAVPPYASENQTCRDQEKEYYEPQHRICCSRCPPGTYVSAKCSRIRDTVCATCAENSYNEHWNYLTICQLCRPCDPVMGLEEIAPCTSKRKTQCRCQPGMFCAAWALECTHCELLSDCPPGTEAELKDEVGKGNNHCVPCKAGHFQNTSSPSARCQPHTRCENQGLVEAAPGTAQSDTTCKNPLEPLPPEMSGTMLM
Experimental: (§1) The binding of anti-LTBR antibodies to human and cynomolgus LTBR was investigated by Surface Plasmon Resonance (SPR) on Carterra LSA. An EC30M chip was used to capture the test antibodies. Activation with EDC and sNHS occurred in MES pH 5.5 to prepare the chip for amine coupling. Goat anti-human IgG Fc antibody was then captured to the chip via incubation for 10 minutes. Excess conjugation sites were quenched with 1M Ethanolamine pH 8. To measure monovalent binding kinetics, antibodies were printed/spotted onto the chip and allowed to bind to the goat antibody, followed by subsequent washing. After the preparation, the printed chip was exposed to repeated rounds of association and dissociation with increasing analyte concentrations. In this work, recombinant proteins (Human LTBR (Acro) or cyno LTBR His (R&D)) were serially diluted across a range starting at 1500 nM with 3-fold dilutions and 10 points. The curves were fitted to global fit in a 1:1 binding model to obtain KD values. The binding affinity to both species is reported.
In the case of B2, the Kd is reported as 0.56 nM.
B3 showed a Kd of 0.25 nM.
With B4 the Kd was 4.3 nM.
With B5 the Kd was 36 nM.
B6 gave a Kd of 0.58 nM.
In the case of B7, the Kd is reported as 0.28 nM.
Work on B8 yielded a Kd of 0.18 nM.
Work on B9 yielded a Kd of 2.1 nM.

What follows are binders tested against T2, cyno LTBR His (R&D), recombinant protein (cynomolgus (Macaca fascicularis), UniProt P36941 31-227 (human entry), limits assumed) in the same assay as above.
T2 construct: bought protein used as analyte on Carterra LSA
T2 sequence (P36941 other isoform, or with tags, fused parts or gaps limits assumed): as the sequence (P36941 31-227 limits assumed) above, with A2V, A7G, Q24R, I45S, N163D, K181R, L184S, P186S counted along it
Experimental: as §1
For B2, the Kd was 0.71 nM.
Binder B3 has a Kd of 0.26 nM.
Binder B4 has a Kd of 1.3 nM.
For B5, the Kd was 53 nM.
Binder B6 has a Kd of 0.39 nM.
Work on B7 yielded a Kd of 2.6 nM.
Work on B8 yielded a Kd of 0.024 nM.
B9 was tested, and the Kd was 1.6 nM.

These binders were tested against mouse LTBR on cells (4T1 tumor cell line; primary mouse lung fibroblasts) (mouse, UniProt P50284 31-415) (assay: cell-based or functional assay).
Chain of mouse LTBR on cells (4T1 tumor cell line; primary mouse lung fibroblasts) (P50284 31-415): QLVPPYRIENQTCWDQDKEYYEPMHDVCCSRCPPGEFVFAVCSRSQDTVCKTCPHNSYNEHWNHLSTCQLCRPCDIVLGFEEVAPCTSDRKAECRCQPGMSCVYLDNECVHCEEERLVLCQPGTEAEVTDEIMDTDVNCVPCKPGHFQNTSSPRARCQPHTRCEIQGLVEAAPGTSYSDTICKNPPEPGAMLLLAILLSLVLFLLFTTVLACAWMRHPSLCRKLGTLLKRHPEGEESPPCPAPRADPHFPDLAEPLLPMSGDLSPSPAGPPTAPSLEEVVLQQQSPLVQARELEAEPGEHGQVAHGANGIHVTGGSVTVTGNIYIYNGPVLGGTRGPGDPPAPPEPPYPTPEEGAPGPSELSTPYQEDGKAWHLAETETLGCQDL
In the case of B10, the “4T1 monoculture CCL5 read-out EC50” value is reported as 0.84 nM and the “4T1 monoculture CCL5 read-out EC50, 4.15 + cross-linking antibody” value is reported as 0.036 nM.

What follows are binders tested against T1, human LTBR endogenously expressed on … (assay: flow cytometry, A375 cells).
Experimental: For binding to LTBR-positive cells, the A375 tumor cell line was used. At the same time, binding to LTBR-negative HEK293 cells was tested to confirm specificity. In short, the cells were resuspended in the FACS binding buffer, and live/dead efluro450 viability dye was added at a 1:1000 dilution to the cell suspension, followed by incubation at room temperature in the dark for 30 minutes. The cells were then diluted to 2 e5/ml, and 100 ul was added to wells of a 96-well U-bottom plate as required. […] The cells were pelleted by centrifugation, and the supernatant was discarded, followed by the addition of a series of dilutions of anti-LTBR antibodies and incubation for 45 minutes at 4 C in the dark. Cells were washed two times with PBS with 3% (w/v) BSA before adding 60 ul of fluorescently labelled secondary antibody (goat anti-human IgG) diluted to 1:200 in PBS. Incubation continued at 4 C for at least 30 minutes, followed by two washes in PBS pH 7.4. Cells were either fixed with 2% PFA (30 minutes at 4 C) followed by washout and storage in 100 ul of PBS or immediately analysed on a Flow Cytometer. The data were analysed using FloJo V10 and GraphPad Prism. No binding to the HEK cell line was detected for any tested clones, confirming the specific interaction between anti-LTBR antibodies and LTBR receptor. The results are summarised in.
For B2, the EC50 was 0.72 nM.
B3 was tested, and the EC50 was 1 nM.
With B4 the EC50 was 9.5 nM.
Binder B6 has an EC50 of 0.66 nM.
B8 was tested, and the EC50 was 3.5 nM.
For B9, the EC50 was 5.4 nM.

Biological target: T1, human LTBR endogenously expressed on …
Assay: cell-based or functional assay
Remark: another data set of the same source
In the case of B2, the “HepG2 reporter assay EC50 (w/o cross-linking antibody)” value is reported as 17 nM and the “HepG2 reporter assay EC50 (with cross-linking antibody)” value is reported as 0.19 nM.
B3 was tested, and the “HepG2 reporter assay EC50 (with cross-linking antibody)” value was 0.16 nM.
For B4, the “HepG2 reporter assay EC50 (w/o cross-linking antibody)” value was 0.17 nM and the “HepG2 reporter assay EC50 (with cross-linking antibody)” value was 0.18 nM.
For B5, the “HepG2 reporter assay EC50 (with cross-linking antibody)” value was 0.09 nM.
B6 was tested, and the “HepG2 reporter assay EC50 (w/o cross-linking antibody)” value was 0.13 nM and the “HepG2 reporter assay EC50 (with cross-linking antibody)” value was 0.043 nM.
For B8, the “HepG2 reporter assay EC50 (w/o cross-linking antibody)” value was 0.073 nM and the “HepG2 reporter assay EC50 (with cross-linking antibody)” value was 0.1 nM.
B9 was tested, and the “HepG2 reporter assay EC50 (w/o cross-linking antibody)” value was 0.24 nM and the “HepG2 reporter assay EC50 (with cross-linking antibody)” value was 0.14 nM.
